This experiment has as its target T1, MUC5AC peptide on HLA-DPA1*01:03 / HLA-DPB1*04:01 (human).
T1 peptide: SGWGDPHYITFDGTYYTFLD
Kind of experiment: multimer staining.

B1: 05-MUC5AC4922-4941 (TCR, V domains shown)
Valpha: QTVTQSQPEMSVQEAETVTLSCTYDTSESNYYLFWYKQPPSRQMILVIRQEAYKQQNATENRFSVNFQKAAKSFSLKISDSQLGDTAMYFCAFMKRAETSGSRLTFGEGTQLTVNP
Vbeta: NAGVTQTPKFRVLKTGQSMTLLCAQDMNHEYMYWYRQDPGMGLRLIHYSVGEGTTAKGEVPDGYNVSRLKKQNFLLGLESAAPSQTSVYFCASSYWPTRETQYFGPGTRLLVL
For the molecule B1, the binding result is “recognises”.
